Laboratory results as given in article PMC3101248.

Molecular target: mouse VPS29 (isotopically labelled NMR sample) (mouse)
Assay: NMR titration; SNX1 titrated into 0.1 mM 15N-labelled VPS29, soFast 15N HMQC, 298 K, 600 MHz; 10 mM HEPES (pH 7.5), 100 mM NaCl, DTT

Substance: human SNX1 (recombinant, for NMR titrations) (from UniProt Q13596 1-522) (natural protein)
- Kd: > 150 µM
